This note sets out measurements from article PMC3734082.

For the assay, the target named is clathrin triskelia (clathrin heavy chain, CHC) purified from rat liver (UniProt P11442). Briefly: GST pull-down, CHC. To be noted: sites S558.

Consider “TACC3 (from UniProt Q9Y6A5) S558A treated with Aurora A”, for which the “binding against the reference” value (reference: wild type treated with Aurora A) is “weaker”.

“TACC3 clathrin interaction domain (CID), 522-577 (from UniProt Q9Y6A5) S558A CID treated with Aurora A”: the “binding against the reference” value (reference: wild-type CID treated with Aurora A) was “weaker”.
